Measurements as given in paper PMC6837886.

What was measured:
[1] = target: T1, UP1 (RRM1-RRM2 fragment of hnRNP A1) (UniProt P09651 1-196); assay: ITC
[2] = target: T1, UP1 (RRM1-RRM2 fragment of hnRNP A1); assay: NMR
[3] = target: T1, UP1 (RRM1-RRM2 fragment of hnRNP A1); assay: ITC; remark: listed apart in the source
[4] = target: T1, UP1 (RRM1-RRM2 fragment of hnRNP A1); assay: NMR; remark: listed apart in the source
[5] = target: T1, UP1 (RRM1-RRM2 fragment of hnRNP A1); assay: NMR; remark: listed apart in the source

T1 sequence (P09651 1-196): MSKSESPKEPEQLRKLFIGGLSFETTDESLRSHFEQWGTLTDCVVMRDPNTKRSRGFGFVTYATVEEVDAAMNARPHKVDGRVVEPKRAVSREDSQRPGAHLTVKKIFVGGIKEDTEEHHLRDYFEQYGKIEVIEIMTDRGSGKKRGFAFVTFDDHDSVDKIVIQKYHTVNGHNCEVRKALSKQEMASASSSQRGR

GCACCACACGGGUUUCAGACAAAAUCCG (structured_RNA) [SMN1 exon 7 ESE1 hairpin]
Kd [1]: 51.3 ± 2.5 µM
Kd [2]: 101 ± 29 µM

GCACCACACG (ssRNA) [RNA0]
Kd [2]: 978 ± 162 µM

GCACCACAGGAUCAAUAGCAGGUGUGGCACACCAGUCAUACCUUGAUCC (structured_RNA) [EV2]
Kd [3]: 5.1 ± 1.9 µM
Kd [4]: 11.1 ± 5.1 µM

GCACCACACGGGUUUUAGACAAAAUCCG (structured_RNA) [SMN2 exon 7 ESE1 hairpin]
Kd [1]: 47.4 ± 19.7 µM
Kd [5]: 100 ± 20 µM
